Source: the domain aggregation screens of Martell et al. (2025)

Assay: soluble fraction after stress (log2 fold change); higher = more stays soluble; pooled small domains, quantitative proteomics
Conditions: stress: 75 degC
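Also: 20 min heating vs room temperature control held 20 min.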

| Sequence | soluble fraction (log2) |
| --- | --- |
| HMPSALGDKIRAARKALKLSLEDLAEKVSSSKSYMWELENRDEPNPGADLLMRIAAALNVTTEHLLGP | -0.28 |
| HMPSDLQATLRAVQGMLQGVEGVDARLAGQRILLEGDSADARARERAAAIAGIFPGVVIDFVG | -0.263 |
| HMPSEAVQNIIGNVKSKRRVATIGQARGLASNVIKEGKFDNVSNTAMVNRLIDLGIISNSIGYQ | -0.0616 |
| HMPSEQGANKARDIIFRHHMKVDVWVGSWENARNYAEQAIKQGVKVIISRGGTAALLRHSLDTAIIKVR | 0.14 |
| HMPSGLFEPIKKSELSIESIDLLKDQIRAFKQADIRITFGFLLDLITKGENPAYVNASKLFEQAWER | 0.141 |
| HMPSPSTLAKVDPFLLVTNADSLLMARPDDSELRAAIITAHINLAKTNNSVDHYKEVLKIEPQNALANYN | 0.17 |
| HMPSPTPEQVLKAFTDAAMQKNTVEELKQAFAKAWKMLEGTPEQHKAQDVYNIRRDELEGAA | 0.376 |
| HMPSSIEGIEKYLGSGMIRGIGAVYAKRLVKQFGKDVFDIIEETPERLREVEGIGPIRAARIISGWADQ | -0.363 |
| HMPTITSPMVGTFYRAPSPGAAPFIEVGDTVKKGQVIGIIEAMKLLNEVEADKDGVVQAFAAENGEL | -0.335 |
| HMPTLNIVDGHIAASDGVRILSIHNVTGRRYATSSKLPAGIYIVVLMPAKAETPLTVKVIVEA | -1.42 |
| HMPTMTDIPIKIIRSRRRTLAIEVREGGEVIVRAPLYSRKAEIDAFVKAHENWIITKYNLMITKQN | -3.51 |
| HMPTPRVPMSKQRQILQLLQDGHLSTREIAAALHISKTSVGDIAKAARLAGLDWEAASKLSDEELSARIYK | -0.36 |
| HMPTSPKANFLKELPQEFTRKQAVTIGDKLNIKERTVDNYLAKLEQAGYLVKPKAGYYQKIKS | -0.0924 |
| HMPTTTFENLPDAKKKTIIAALLKEFSQSPLSKAQVAPIVKESQIARGAFYKYFVDLTDAYTYLYRQ | -0.0519 |
| HMPTVLKQGSTGQEVKELQQALSKLGYRVTVTGEFDTATHYGVVRFQRKHRLTIDGIVGPQTLSKIRAHQK | -2.56 |
| HMPVAPTYALTVKTDPPSANVRLLNSPTPYQPGVRLPSGNYDIEVTQSGYATRKESVRIADRDVALNIAL | 0.265 |
| HMPVASNRDVNLDIGERVFVQEWAPNRTARVQYRGSPWEARLAPGAPAAAGEHRVSAVEGNWLVLEPA | -0.139 |
| HMPVEFVKISIKPGHPWENQFVRDIVSLPDLLMVLILRGEERIIPNGNTKILVGDKIVLSALSPG | -2.2 |
| HMPVEHVWHIAENGQTSGPYSKARMGRMAQEGQLTRDTHVWTPGQDGWMRAGDVTELAQLFT | 0.0383 |
| HMPVFSLTPRELEILEWMSTPNTYRQIAAQLSVSEETVRSHAKNILEKMRQPNRAQAVLAAVKMGLIKL | -1.57 |
| HMPVISGQDLRVLIRDTGRERDQGISFLDDGTMVVVEDARRLIGQEVTATVTRVHQTQTGRIVFAHLSN | -1.25 |
| HMPVPSPAEQTATQLANIERHTGITVDGWTRAIAEAGAAKHGEIVAWLKQQGLTHGNANALAHAVRARQSG | 0.581 |
| HMPVQSNRDALLDIGQTLQVQAWDAQGSARVSYRGSDWTAEFRGPGAAAPGLHRIIAVQGNRLIVEPA | 0.342 |
| HMPVRIYEISKKLGLENKEVLATAKSLGIAAAKVPSSSLDKITAEYLEEEILKSHPEVAARLK | 0.142 |
| HMPVYEEEVPAALDGQRLDRVVAMVTGLSRSEVGALLAAGAVTVDGTTPAKGSVRLAAGSIVSVTVS | -0.357 |
| HMQAATGVVTASVLNIRQGPGTNYTKVGSLLKGAQVEIVGQNGAWSKIRLKSGITGWVNSSYLKTST | -1.84 |

| Sequence | soluble fraction (log2) |
| --- | --- |
| HMQAGPEDIIRAKLKTAMPEAQIISIRPTPAGLYQVNAKGYESVFVTADGRYLFQGDLLEIQGDRIVNL | -0.186 |
| HMQAKNGTVTGSVVNVRGGAGTQYAVKGKASRGTKVTILGQQSSWLNVRLDNGVTGWIHADYVQISE | 0.592 |
| HMQAPHLALSPREFQVLQGLLAGDALDIIAERLHLSAKTVSNHQTLIRQKLGVGNAVELLRYAQLHRL | -2.49 |
| HMQAPIFMNETDGKWYFREKYLNDNHEIAYRVHPEGYDQMEDALRNSVNALNEFAAEMKELRKQV | -0.0803 |
| HMQAPVVNHDLIKSFERQWREIKATAKGKVRSVNLSDARSILQSFLNTLQKGPGTDSLISSVQNELSLIA | -0.17 |
| HMQARDQNVDEGKALLEKEFSRLALENLDRDKLANAVNYPTRDDMYAAIGAGDLRVGQVLHQAQQLF | 0.226 |
| HMQASTGNVNTETLNLRKEASTSADILKLLSQGDEVEIVSESNGWYKVKYKDTEGFVSKEYITVN | 1.02 |
| HMQATETFSLIVPMSSAGNRLDVVLSELLPNFSRKKIQDAIKNGDATLNGKAPKIRDKVYGGENITITLIL | -2.55 |
| HMQAVDPLELRAGDFVVHEQHGIGRYVEMVQRTIGGITREYLVIEYAPAKRGQPNDRVFVPTDTLEQVS | -0.654 |
| HMQAVKQIKVERGMTLEKIAQSEFGDSTRWGEIVEVNNLRAPYISDDPTETRDGVLKPGSNLLIPIP | -0.0397 |
| HMQDEAQLSMSNKYIFEGNSIVKDNFIEAEKKYRLGVSAKPNNAVGSYNLANAYYNSKLYDEAMLRLL | 0.379 |
| HMQDEREEIAVEDVVGMPLWQARKVIADQGFRVLDDGAGDIVIAQMPSGGGKLIEGGQVMLYTYTD | 0.687 |
| HMQDFEEILKNAKIEDFKHTQTGEDLKVLKIEDKIEDFKGFNAYLVKNQIAYYSKFARGFVVKNIEKLQGV | 0.202 |
| HMQDFEQNLFDGKSIYDRMLSKFSLHNVDVKQLVAHFKRKDTEQFFADIGRGLITSAQMLGFLQT | -0.0166 |
| HMQDLVAVPALTGLTENDAINKAKANNLIAVVSEYKTENSVEPGKVLEQDPESSTEVKKGTIIKLVVS | 0.756 |
| HMQDQVTLIVQVNGKLRGQISISTDATKELIEQTALANENVQKFVDGQSIKKIIIVPGRLVNIV | -0.939 |
| HMQDRDKNVPAGKELLDNEIARLNMSLKQVEQFALPRYNLKTLEDLYSGIGSGDIRLNHLINFLQSKLI | 0.338 |
| HMQDREIHIHAGREVLEKELSRLSLHLKNTNLQEYAARFNVKTAEDILAGIGAGDIRPAHVVNLIADKL | -0.0928 |
| HMQDSSGENNPQSKLTQQQVDLLMKDLKETNVEFDKLAEKYNVSIKTIRNVNTGIAWRKNDITYPIREP | -0.407 |
| HMQDTQAEEGETLLDALRRIHPESSTGTLRRMLTQGRVQLDGDSVHAAKTVLSAGQRVEVVAR | -0.143 |
| HMQDTTLTSQILRVPSSVNINDLANVLKSLAGKNTVVAPYKAANTIIITGYAPNVRRVLSLANELIPRLDV | -1.18 |
| HMQEAGLITQRIREMREKENWTQEYMAEQLGMSENGYAKIERGESNLSLKRLQQIADIFEVESAELLK | 0.00448 |
| HMQEDKSKYLFQRGTAITVLRPAGIVRIGKERVDAVSNGSYIDRGVAVRVIEVEGTRVVVEPVPE | 0.0187 |
| HMQEEMIRGDIKLNTVMQTVHLAVGTETERNWQPVETTAKEFELLKLLMENPGVTLKKEYLFHMLI | -0.101 |
| HMQEESISWKEFLELDIIGDKKKRLKVYDLFHLGYGNAKTLFKRLNMVGISREMIEKELENEGY | -1.39 |
| HMQEKIREVANRIRELRESLEVSPEEMADHLKVTIGTYIEYERGEADIPASVLFGIAHRLNVDMAVLL | -1.36 |

| Sequence | soluble fraction (log2) |
| --- | --- |
| HMQEKLELIIPVSSIGKRADVAIQDLLSSYSRAKIQEWIKSGFILLESKKISPKDIFMGGERVFIDIQQDE | -1.86 |
| HMQELVPGKVFEGTVTEMKNGQVTLGLSDGKTISARMEQGVSLAKGQPMLFEVKSNTGEQIAIRPVVL | 0.263 |
| HMQENKVLEGKVLEKKKKKVFVDLSPFGVGVIRGVNYLEAKNELKDIEEGDNIKVRVLEIDNENGFIELAL | -0.121 |
| HMQERQREGFVQQLRGKYSGQVVMRLFPELQGKALGEFMRKFEAQWEDHEAVLAAMEAHEIESRLKVFK | -1.57 |
| HMQETALANFETNEGVQKVKQYVQENVPSLRGSNIVGVWTSYTPEGLTNYRTRFLTQDGQFVEVNLAYQ | -0.203 |
| HMQETIDVAALRVGMFVHLDLGWLAHPFPLSSFRISSEDQISTIRALGLKRVRWSSQHSELG | -1.29 |
| HMQETKDEGAQVLLNKINALVAAVQGQIITPEEAAIKLATDGDLDLDVDARVAAIEEFNKKLSEAQNN | 0.101 |
| HMQEVILEKIQLTYLSADKLSKMAEQFSIPVKMYWVDENPMMLMVMGNESDIATFKKVLTQIDIPENKS | -0.268 |
| HMQFHQDNYALEFIRDLQPVDGAIILSRFKQFDLVELEKAKKIKFSDEHMAWTLYDYDIKKIN | -1.95 |
| HMQFLKPQDVLFLLKLVVLKGPASIFPAVPESLGLSKAEVHNSAKRVRGARLLPHDSWNPLRKNLLEFL | -0.488 |
| HMQFQVHEIKGKEYYIHVVEKGNTLYAISRMYSVPIETLKEENPRLNTTELTIGDRLLIPLDEVKRKNIE | -0.833 |
| HMQFYSGLEARLMDPNTPEVFDDPISLMAFLQQKNISRVELEDNLLLPYLKEMAGQPIPKAELLEIIRK | -0.815 |
| HMQGDHELSQRILSYLSEQGGSSPLTDKASPEEIYRIFRVSKKKYKQALGNLYKSKSIIILADKIQLL | -3.2 |
| HMQGEDEILKIHEALEELAQIDARLVRVVEMRYFVGLSNQEIADSLGVTTRTVERDWEKARTFLFNALHP | -1.86 |
| HMQGISGIERSLLDALAFEPAGLDALQARTGLDTPTLQALLMGLELQGHVARLPGSLFQRLVR | -0.9 |
| HMQGVTVPDLTRVSLEEAVATISSLGLRYEISDRRSNAAFPANYVLDQAPGANTIVKPNRKVYLTVNAA | -0.162 |
| HMQGWREWDYSADLYINARVGGKIEPTENSPISRVYELDEPVSVVAFTSTRYFKLSSGDYIFAEYLSAQKV | -4.29 |
| HMQGYELKMYVTPDTKYSVAVYDAKNEMVSYTMGFSAKAPFGQEGEVLETVKLEFDKLAVGNYELKYWI | 0.258 |
| HMQHYQFEVDEASSKKRLDVFLSENLPEISRSRLKKLIDEKRVTVNEMSRPAGYKVRVKEKIEFHIPPL | -0.718 |
| HMQIAEAESLGQRLLQQSINNIVGRDEAITEERLNRVLSQYSLTGRDELMAQIGLGNRNSSLVAKAMYDI | -0.0772 |
| HMQIKEVDYGTFISMTEDGEIGRVEIQQQENTILFTDEDETAVYKTAMVEDDQLTQRLYDAGISFYGEE | 0.0917 |
| HMQILVEGVEANQRLDLFLRARLTEFSRSRIQGLVKNGNVLVNGNIARQAYLVQVGDKIELDVPEPVA | -0.603 |
| HMQIMVVDEADRMLDMGFIPDIERIFQLTPFTRQTLFFSATMAPEIERITDTFLHSPERIEVAR | -0.255 |
| HMQISDDGFILKIINEVVAENPKSISDYISGKEAAVGFLVGQIMKKTRGKANPKLVNEMLITELAKLKN | 0.0585 |
| HMQISDESSIAKIADEVISEFPSQVSEFRSGKEKVLQFLIGQVMKKTKGKANPQITAKILREKLS | 0.00566 |
